Laboratory results from patent publication US20240200091A1, “USE OF PROTOPORPHYRINOGEN OXIDASE” (BEIJING DABEINONG BIOTECHNOLOGY CO., LTD., priority 2021, published 2024).

B1: PPO5A: nucleotide sequence encoding microbial protoporphyrinogen oxidase PPO5 (SEQ ID NO:5), Arabidopsis thaliana/soybean common codon usage bias (nucleic acid)
DNA: ATGAAGACTCTTATCCTCTACTTCACAACAGACGGCCAAACGAAAAAGATTGCCGAGAGACTGGCTGATGTGATTACTCATGAAGTGGAGCTAATCTCCTTGAAAGATCAAGCTGTTGATTTTGCTCAGAAGATGGCTAATGTTGACCAAGTAGTCATTGGAGCGAGTATAAGGTATGGTCACTTCAGCCCTCTTGTTTATCAGTTTATTGAACAACATTATGCAATGTTGAATGAGAAGAAAACCGCTTTTTATGGAGTGAATCTCACAGCAAGGAAAGCAAATCGAAACACCCCAACCACAAATACTTACATCCGGAACTTCTTAGCAAAGGTGAAATGGCAACCTAACTATGTTGAGGTCATAGCTGGTGCCTTGTTTTACCCGCGTTACAGATTCATTGATAGAATGATGATTCGCTTCATCATGAAAGTAACGAAAGGAGAAACTGATGTTTCAAAAGAATATGAATACACAAACTGGCAGCAAGTTGAAGAGTTTGGGAAGAAGCTTTCTGATCAGTTAATATGA
modifications: PPO5A Nucleotide Sequence
B2: PPO4A: nucleotide sequence encoding microbial protoporphyrinogen oxidase PPO4 (SEQ ID NO:4), Arabidopsis thaliana/soybean common codon usage bias (nucleic acid)
DNA: ATGAAAACCCTGATTCTTTACAGCAGTCATGATGGACAGACCAAGAAAATCTCAGAGTTCCTTACGGCGTTGTTGAATGGCGAAGTTCTAGTTGATGCTCTACGTGAAGATTATGATATTGAAACATTTGACCAAGTTATAATCGGAGCTTCCATAAGGTATGGTCACTTTTCTAAGACTTTAGACAGATTTGTGGTGAGAAACAGGGTACATCTGGAACAAAAACGAGCAGTATTCTTCTCTGTTAACTTAACTGCCCGAAAAGAAGGTAAAGACAATCCTGAAACTAATGTCTATGTCAGAAAGTTTCTCCAGAGAACAAAATGGCAACCAAAACTTGCTGCCGTCTTCGCAGGTGCACTCTTGTACCCGAGATATAAGTGGTTTGATCGTGTGATGATTCGGTTTATCATGAAGATTACTGGGGGAGAGACGGATATAACAAAGGAGATTGAGTACACAGATTGGGAAAAGGTTAGGGAGTTCGCTCAGAGAATCAACCGCCTTGAGAAATGA
modifications: PPO4A Nucleotide Sequence

Key:
Format in all cases: in vivo
Conditions in all cases: 7 DAT, number of plants of 24 per genotype, grades
[1] = system: Arabidopsis thaliana T1 plants; assay: oxyfluorfen tolerance of transgenic Arabidopsis thaliana T1 plants (spray, grade of pesticide damage)
From the text: (§1) The transformed Arabidopsis thaliana T1 plants were initially selected using glufosinate herbicide. The Arabidopsis thaliana T1 plants (PPO1A) into which the PPO1A nucleotide sequence was introduced, the Arabidopsis thaliana T1 plants (PPO2A) into which the PPO2A nucleotide sequence was introduced, the Arabidopsis thaliana T1 plants (PPO3A) into which the PPO3A nucleotide sequence was introduced, the Arabidopsis thaliana T1 plants (PPO4A) into which the PPO4A nucleotide sequence was introduced, the Arabidopsis thaliana T1 plants (PPO5A) into which the PPO5A nucleotide sequence was introduced, the Arabidopsis thaliana T1 plants (PPO6A) into which the PPO6A nucleotide sequence was introduced, the Arabidopsis thaliana T1 plants (PPO7A) into which the PPO7A nucleotide sequence was introduced, the Arabidopsis thaliana T1 plants (PPO8A) into which the PPO8A nucleotide sequence was introduced, the Arabidopsis thaliana T1 plants (PPO9A) into which the PPO9A nucleotide sequence was introduced, the Arabidopsis thaliana T1 plants (PPO10A) into which the […] nucleotide sequence was introduced, the Arabidopsis thaliana T1 plants (PPO11A) into which the PPO11A nucleotide sequence was introduced, the Arabidopsis thaliana T1 plants (PPO12A) into which the PPO12A nucleotide sequence was introduced, the Arabidopsis thaliana T1 plants (PPO13A) into which the PPO13A nucleotide sequence was introduced, the Arabidopsis thaliana T1 plants (PPO14A) into which the PPO14A nucleotide sequence was introduced, the Arabidopsis thaliana T1 plants (PPO-ATA) into which the PPO-ATA nucleotide sequence was introduced, the Arabidopsis thaliana T1 plants (PPO-APA) into which the PPO-APA nucleotide sequence was introduced, the Arabidopsis thaliana T1 plants (control vector) into which the control vector was introduced, and the wild-type Arabidopsis thaliana plants (CK) (with 24 plants being included in each genotype) (18 days after sowing) were sprayed with oxyfluorfen at three concentrations (180 g ai/ha (one-fold field concentration, 1×), 720 g ai/ha (four-fold field concentration, 4×), and 0 g ai/ha (water, 0×)), saflufenacil at three concentrations (25 g ai/ha (one-fold field concentration, 1×), 100 g ai/ha (four-fold field concentration, 4×), and 0 g ai/ha (water, 0×)), flumioxazin at three concentrations (60 g ai/ha (one-fold field concentration, 1×), 240 g ai/ha (four-fold field concentration, 4×), and 0 g ai/ha (water, 0×), and sulfentrazone at three concentrations (450 g ai/ha (one-fold field concentration, 1×), 900 g ai/ha (two-fold field concentration, 2×), and 0 g ai/ha (water, 0×) to determine the tolerance of Arabidopsis thaliana to the herbicides. After 7 days of spraying (7 DAT), the damage level of each plant caused by the herbicide was evaluated according to the average of the damage levels (%) of plants (the average of the damage levels (%) of plants=the injured leaf area/the total leaf area×[…]), i.e., the grade of pesticide damage: grade 0 means that the growth status of plants is essentially consistent with those sprayed with the blank solvent (water); grade 1 means that the average of the damage levels of plants is less than 10%; grade 2 means that the average of the damage levels of plants is greater than […]; and grade 3 means that the average of the damage levels of plants is 100%. The plants having a growth status falling within grades 0 and 1 are classified as highly resistant plants; those having a growth status falling within grade 2 are classified as poorly resistant plants; and those having a growth status falling within grade 3 are classified as non-resistant plants.

[2] = system: Arabidopsis thaliana T1 plants; assay: saflufenacil tolerance of transgenic Arabidopsis thaliana T1 plants (spray, grade of pesticide damage)
From the text: as §1

[3] = system: Arabidopsis thaliana T1 plants; assay: flumioxazin tolerance of transgenic Arabidopsis thaliana T1 plants (spray, grade of pesticide damage)
From the text: as §1

[4] = system: Arabidopsis thaliana T1 plants; assay: sulfentrazone tolerance of transgenic Arabidopsis thaliana T1 plants (spray, grade of pesticide damage)
From the text: as §1

Row | Molecule | The grade of pesticide damage/plant: grade 0 ([1]; oxyfluorfen 180 g ai/ha (1×)) | The grade of pesticide damage/plant: grade 1 ([1]; oxyfluorfen 180 g ai/ha (1×)) | The grade of pesticide damage/plant: grade 2 ([1]; oxyfluorfen 180 g ai/ha (1×)) | The grade of pesticide damage/plant: grade 3 ([1]; oxyfluorfen 180 g ai/ha (1×)) | The grade of pesticide damage/plant: grade 0 ([1]; oxyfluorfen 720 g ai/ha (4×)) | The grade of pesticide damage/plant: grade 1 ([1]; oxyfluorfen 720 g ai/ha (4×)) | The grade of pesticide damage/plant: grade 2 ([1]; oxyfluorfen 720 g ai/ha (4×)) | The grade of pesticide damage/plant: grade 3 ([1]; oxyfluorfen 720 g ai/ha (4×)) | The grade of pesticide damage/plant: grade 0 ([2]; saflufenacil 25 g ai/ha (1×)) | The grade of pesticide damage/plant: grade 1 ([2]; saflufenacil 25 g ai/ha (1×)) | The grade of pesticide damage/plant: grade 2 ([2]; saflufenacil 25 g ai/ha (1×)) | The grade of pesticide damage/plant: grade 3 ([2]; saflufenacil 25 g ai/ha (1×)) | The grade of pesticide damage/plant: grade 0 ([2]; saflufenacil 100 g ai/ha (4×)) | The grade of pesticide damage/plant: grade 1 ([2]; saflufenacil 100 g ai/ha (4×)) | The grade of pesticide damage/plant: grade 2 ([2]; saflufenacil 100 g ai/ha (4×)) | The grade of pesticide damage/plant: grade 3 ([2]; saflufenacil 100 g ai/ha (4×)) | The grade of pesticide damage/plant: grade 0 ([3]; flumioxazin 60 g ai/ha (1×)) | The grade of pesticide damage/plant: grade 1 ([3]; flumioxazin 60 g ai/ha (1×)) | The grade of pesticide damage/plant: grade 2 ([3]; flumioxazin 60 g ai/ha (1×)) | The grade of pesticide damage/plant: grade 3 ([3]; flumioxazin 60 g ai/ha (1×)) | further results
1 | B1 | 24 plant | 0 plant | 0 plant | 0 plant | 22 plant | 2 plant | 0 plant | 0 plant | 24 plant | 0 plant | 0 plant | 0 plant | 0 plant | 24 plant | 0 plant | 0 plant | 24 plant | 0 plant | 0 plant | 0 plant | The grade of pesticide damage/plant: grade 0 ([3]; flumioxazin 240 g ai/ha (4×)): 21 plant; The grade of pesticide damage/plant: grade 1 ([3]; flumioxazin 240 g ai/ha (4×)): 3 plant; The grade of pesticide damage/plant: grade 2 ([3]; flumioxazin 240 g ai/ha (4×)): 0 plant; The grade of pesticide damage/plant: grade 3 ([3]; flumioxazin 240 g ai/ha (4×)): 0 plant; The grade of pesticide: grade 0 ([4]; sulfentrazone 450 g ai/ha (1×)): 24; The grade of pesticide: grade 1 ([4]; sulfentrazone 450 g ai/ha (1×)): 0; The grade of pesticide: grade 2 ([4]; sulfentrazone 450 g ai/ha (1×)): 0; The grade of pesticide: grade 3 ([4]; sulfentrazone 450 g ai/ha (1×)): 0; The grade of pesticide: grade 0 ([4]; sulfentrazone 900 g ai/ha (2×)): 20; The grade of pesticide: grade 1 ([4]; sulfentrazone 900 g ai/ha (2×)): 4; The grade of pesticide: grade 2 ([4]; sulfentrazone 900 g ai/ha (2×)): 0; The grade of pesticide: grade 3 ([4]; sulfentrazone 900 g ai/ha (2×)): 0
2 | B2 | 24 plant | 0 plant | 0 plant | 0 plant | 22 plant | 2 plant | 0 plant | 0 plant | 24 plant | 0 plant | 0 plant | 0 plant | 4 plant | 20 plant | 0 plant | 0 plant | 24 plant | 0 plant | 0 plant | 0 plant | The grade of pesticide damage/plant: grade 0 ([3]; flumioxazin 240 g ai/ha (4×)): 22 plant; The grade of pesticide damage/plant: grade 1 ([3]; flumioxazin 240 g ai/ha (4×)): 2 plant; The grade of pesticide damage/plant: grade 2 ([3]; flumioxazin 240 g ai/ha (4×)): 0 plant; The grade of pesticide damage/plant: grade 3 ([3]; flumioxazin 240 g ai/ha (4×)): 0 plant; The grade of pesticide: grade 0 ([4]; sulfentrazone 450 g ai/ha (1×)): 24; The grade of pesticide: grade 1 ([4]; sulfentrazone 450 g ai/ha (1×)): 0; The grade of pesticide: grade 2 ([4]; sulfentrazone 450 g ai/ha (1×)): 0; The grade of pesticide: grade 3 ([4]; sulfentrazone 450 g ai/ha (1×)): 0; The grade of pesticide: grade 0 ([4]; sulfentrazone 900 g ai/ha (2×)): 18; The grade of pesticide: grade 1 ([4]; sulfentrazone 900 g ai/ha (2×)): 6; The grade of pesticide: grade 2 ([4]; sulfentrazone 900 g ai/ha (2×)): 0; The grade of pesticide: grade 3 ([4]; sulfentrazone 900 g ai/ha (2×)): 0
